In patent US20090203610A1, “METHODS OF TREATING OBESITY OR DIABETES USING NT-4/5” (RINAT NEUROSCIENCE CORPORATION, priority 2004, published 2009):
Positions count from the first letter of the chain named. Numbers in names are those of the source.

Columns and labels:
p75NTR = target: T1, p75NTR (Homo sapiens, UniProt P08138); conditions: low affinity receptor (LNGFR, p75NTR); cited from earlier work
T1 sequence (P08138 29-427): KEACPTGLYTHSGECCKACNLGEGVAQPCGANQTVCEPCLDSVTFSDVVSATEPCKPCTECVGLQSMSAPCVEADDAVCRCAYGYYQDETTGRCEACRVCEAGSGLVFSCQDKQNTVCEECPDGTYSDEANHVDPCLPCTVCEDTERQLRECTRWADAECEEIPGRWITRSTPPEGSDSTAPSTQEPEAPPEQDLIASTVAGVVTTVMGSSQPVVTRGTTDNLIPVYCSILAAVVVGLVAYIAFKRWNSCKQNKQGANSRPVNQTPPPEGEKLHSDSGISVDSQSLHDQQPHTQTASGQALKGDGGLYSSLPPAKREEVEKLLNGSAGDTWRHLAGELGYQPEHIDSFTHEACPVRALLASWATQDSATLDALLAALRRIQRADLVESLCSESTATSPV

human TrkC = target: T2, human TrkC (Homo sapiens, UniProt Q16288); assay: Receptor tyrosine phosphorylation in trkC expressing cell line; type: cell-based
T2 construct: expressed in transfected cells
Source text: (§1) Assays of TrkB specific activation by pegylated NT-4/5: Stable cell lines expressing human TrkA, TrkB or TrkC were used to determine the functional activity, i.e. receptor phosphorylation, of NT-4/5 and pegylated NT-4/5 as previously described (Sadick et al. Experimental Cell Research 234: 354-361, 1997).
(§2) Assays of TrkB specific activation by pegylated NT-4/5: Stable cell lines expressing human TrkA, TrkB or TrkC were used to determine the functional activity, i.e. receptor phosphorylation, of NT-4/5 and different forms of pegylated NT-4/5 as previously described (Sadick et al. Experimental Cell Research 234: 354-361, 1997).

human TrkB = target: T3, human TrkB (Homo sapiens, UniProt Q16620); assay: Receptor tyrosine phosphorylation (KIRA) in TrkB expressing cell line; type: cell-based; conditions: for functional binding with TrkB in the KIRA assay: single cysteine mutants
T3 construct: expressed in transfected cells
Source text: Method of making pegylated NT-4/5 (S50C): The native form of NT-4/5 used in this study was produced according to the method described in U.S. Pat. No. 6,184,360. A site-directed pegylated NT-4/5 was also produced. The structure of NT-4/5 in complex with domain 5 of TrkB was examined to find amino acid side chains that would be surface available and unlikely to interfere with natural disulfide bonds and also unlikely to interfere in either the interactions between the monomer subunits of NT-4/5 or the TrkB domain 5 to create a PEG attaching site. […] […] Mutant proteins were expressed in E. coli, solubilized, extracted, purified and refolded as the native NT-4/5. To pegylate the refolded NT4-S50C, NT4-Q105C, and NT-4-E67C, first a mild reduction with 0.1 mM DTT (dithiothreitol) was performed. Excess DTT was removed by dialysis against 50 mM sodium acetate at pH 6, then a 5 molar excess of mPEG-maleimide (M. W. of 10,000 Da, SunBio, Inc., South Korea) was incubated with the protein at 37° C. for several days with gentle agitation. Pegylated protein, non-pegylated protein and unreacted PEG were separated via ion exchange or size exclusion chromatography.
as §1, §2

human TrkA = target: T4, human TrkA (Homo sapiens, UniProt P04629); assay: Receptor tyrosine phosphorylation in trkA expressing cell line; type: cell-based
T4 construct: expressed in transfected cells
Source text: as §1, §2

[1] = test system: NONcNZO-10 polygenic obese mice; assay: Pegylated NT-4/5 cysteine mutant on body weight, food intake, glucose, triglyceride in NONcNZO-10 mice (Example 6); type: in vivo; conditions: single subcutaneous injection of 1 mg/kg
Method: Test animals: 30 male NONcNZO-10 polygenic obese mice at 10 weeks of age weighing in the range of 27-32 g were used in this study.
Administration of NT-4/5 and pegylated NT-4/5: The mice were divided into 4 groups of equivalent body weight distribution (7-8 mice per group). Each group received on the first day (day 1) of the study one and the only dose of either vehicle alone, 1 mg/kg of NT-4/5 or 1 mg/kg of PEG-NT4-S50C, respectively. A final group received a daily subcutaneous dose of 1 mg/kg of NT-4/5 from day 1 to day 5, then from day 7 to day 9. On day 9 after the treatment started, blood samples were collected to determine serum glucose and triglyceride levels. Body weight and food intake were monitored 5 days a week through out the entire study.

DIO mice [2] = assay: Weekly intravenous pegylated G1S NT-4/5 versus WT NT-4/5 on body weight and food intake in DIO mice (Example 8); type: in vivo
Source text: Test animals: Mice with diet induced obesity (DIO) were used in this study. 29 male C57BL/6J mice were weaned at 4 weeks of age. Immediately after weaning, they were put on 58% high fat diet (D12331i, Research Diet) through out the study. The DIO mice at 13 weeks of age weighing in the range of 28-40 g were used in this study.
Administration of NT-4/5 and pegylated NT-4/5: NT-4/5 was obtained from Genentech Inc. or produced as described in U.S. Pat. No. 6,184,360. Pegylated NT-4/5 was produced as follows: A mutation was introduced by changing the glycine 1 position of mature human NT-4/5 sequence to serine, resulting in a mutant form of NT-4/5 (NT4-G1S). NT4-G1S protein was expressed in E. coli, solubilized, extracted, purified and refolded as described above. Refolded NT4-G1S was dialyzed into 50 mM sodium phosphate buffer at pH 6.8 and treated with 1.5 molar excess sodium meta-periodate for 10 minutes to oxidize the N-terminal serine (or threonine) residue to an aldehyde. Remaining periodate was removed by dialysis against 30 mM sodium acetate at pH 4.5. The exact concentration of NT4-G1S was determined and a 2 to 4 fold molar excess of 20K-m-PEG-HZ (methoxy polyethylene glycol hydrazide) was added. The reaction was incubated at 37° C. for several days with gentle agitation. Unconjugated PEG, pegylated NT4-G1S and non-pegylated NT4-G1S were separated via ion exchange or size exclusion chromatography.
The mice were divided into 3 groups of equivalent body weight and baseline blood glucose distribution (7-8 mice per group). Each group received four weekly intravenous doses (on day 1, 8, 15 and 22) of either vehicle, 2 mg/kg of NT-4/5 or 2 mg/kg of pegylated G1S NT-4/5 respectively. Body weight and food intake were monitored 5 days per week through out the entire study.

DIO mice [3] = assay: NT-4/5 versus BDNF on body weight and food intake of DIO mice (Example 10); type: in vivo; conditions: 2 mg/kg i.v.
Source text: Test animals: Mice with diet induced obesity (DIO) were used in this study. 22 male C57BL/6J mice were weaned at 4 weeks of age. Immediately after weaning they were put on 58% high fat diet (D12331i, Research Diet) through out the study. The DIO mice at 13 weeks of age weighing in the range of 28-40 g were used in this study.
Administration of NT-4/5 and BDNF: NT-4/5 was produced was produced as described in U.S. Pat. No. 6,184,360. The recombinant human BDNF was obtained from PeproTech Inc. (Rocky Hill, N.J.).
The mice were divided into 3 groups of equivalent body weight distribution (7-8 mice per group). Each group received 2 weekly intravenous doses of either vehicle, 2 mg/kg of NT-4/5 or 2 mg/kg of BDNF, respectively. Body weight and food intake were taken the day before treatment started (day 0) and followed subsequently on a daily basis.

T3 sequence (Q16620 32-822): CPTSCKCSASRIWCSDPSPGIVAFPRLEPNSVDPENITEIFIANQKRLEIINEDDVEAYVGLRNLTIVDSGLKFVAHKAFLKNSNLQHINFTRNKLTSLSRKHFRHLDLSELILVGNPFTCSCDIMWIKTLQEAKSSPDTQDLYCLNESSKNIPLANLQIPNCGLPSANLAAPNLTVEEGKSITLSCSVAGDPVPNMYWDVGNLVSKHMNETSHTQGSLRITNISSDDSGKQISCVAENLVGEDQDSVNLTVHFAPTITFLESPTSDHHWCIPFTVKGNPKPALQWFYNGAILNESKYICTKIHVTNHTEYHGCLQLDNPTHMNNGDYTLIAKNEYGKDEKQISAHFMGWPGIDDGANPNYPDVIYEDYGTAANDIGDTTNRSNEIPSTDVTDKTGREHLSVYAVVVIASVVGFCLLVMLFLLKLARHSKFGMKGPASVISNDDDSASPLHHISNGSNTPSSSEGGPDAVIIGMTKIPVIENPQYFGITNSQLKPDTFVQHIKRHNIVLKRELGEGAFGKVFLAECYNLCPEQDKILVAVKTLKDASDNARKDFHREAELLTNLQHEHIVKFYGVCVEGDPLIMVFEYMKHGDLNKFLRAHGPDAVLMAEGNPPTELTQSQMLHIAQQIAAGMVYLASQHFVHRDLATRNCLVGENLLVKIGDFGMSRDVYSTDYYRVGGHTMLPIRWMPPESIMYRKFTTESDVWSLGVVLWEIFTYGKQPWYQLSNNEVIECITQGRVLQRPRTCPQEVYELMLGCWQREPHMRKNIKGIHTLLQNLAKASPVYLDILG
T2 sequence (Q16288 32-839): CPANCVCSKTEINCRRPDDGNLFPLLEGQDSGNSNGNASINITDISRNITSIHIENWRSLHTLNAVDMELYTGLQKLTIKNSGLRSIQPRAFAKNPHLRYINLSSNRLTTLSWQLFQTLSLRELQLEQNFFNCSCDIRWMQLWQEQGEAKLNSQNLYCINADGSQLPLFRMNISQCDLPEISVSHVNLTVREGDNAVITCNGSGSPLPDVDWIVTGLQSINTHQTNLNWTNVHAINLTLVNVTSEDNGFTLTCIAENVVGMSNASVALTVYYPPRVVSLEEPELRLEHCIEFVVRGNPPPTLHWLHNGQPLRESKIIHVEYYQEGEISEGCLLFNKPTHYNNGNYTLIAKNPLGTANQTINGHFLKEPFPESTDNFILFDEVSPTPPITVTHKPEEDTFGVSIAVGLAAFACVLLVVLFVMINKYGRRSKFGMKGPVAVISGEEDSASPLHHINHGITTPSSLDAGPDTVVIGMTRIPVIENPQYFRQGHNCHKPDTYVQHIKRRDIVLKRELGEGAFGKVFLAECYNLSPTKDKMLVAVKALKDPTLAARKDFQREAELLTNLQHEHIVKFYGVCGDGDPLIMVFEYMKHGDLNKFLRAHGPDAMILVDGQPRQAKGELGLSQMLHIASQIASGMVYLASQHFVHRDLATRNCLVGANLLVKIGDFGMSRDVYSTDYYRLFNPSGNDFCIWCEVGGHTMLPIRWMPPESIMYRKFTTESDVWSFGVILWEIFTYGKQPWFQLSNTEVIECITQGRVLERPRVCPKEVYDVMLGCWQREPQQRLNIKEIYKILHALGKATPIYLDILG
T4 sequence (P04629 33-796): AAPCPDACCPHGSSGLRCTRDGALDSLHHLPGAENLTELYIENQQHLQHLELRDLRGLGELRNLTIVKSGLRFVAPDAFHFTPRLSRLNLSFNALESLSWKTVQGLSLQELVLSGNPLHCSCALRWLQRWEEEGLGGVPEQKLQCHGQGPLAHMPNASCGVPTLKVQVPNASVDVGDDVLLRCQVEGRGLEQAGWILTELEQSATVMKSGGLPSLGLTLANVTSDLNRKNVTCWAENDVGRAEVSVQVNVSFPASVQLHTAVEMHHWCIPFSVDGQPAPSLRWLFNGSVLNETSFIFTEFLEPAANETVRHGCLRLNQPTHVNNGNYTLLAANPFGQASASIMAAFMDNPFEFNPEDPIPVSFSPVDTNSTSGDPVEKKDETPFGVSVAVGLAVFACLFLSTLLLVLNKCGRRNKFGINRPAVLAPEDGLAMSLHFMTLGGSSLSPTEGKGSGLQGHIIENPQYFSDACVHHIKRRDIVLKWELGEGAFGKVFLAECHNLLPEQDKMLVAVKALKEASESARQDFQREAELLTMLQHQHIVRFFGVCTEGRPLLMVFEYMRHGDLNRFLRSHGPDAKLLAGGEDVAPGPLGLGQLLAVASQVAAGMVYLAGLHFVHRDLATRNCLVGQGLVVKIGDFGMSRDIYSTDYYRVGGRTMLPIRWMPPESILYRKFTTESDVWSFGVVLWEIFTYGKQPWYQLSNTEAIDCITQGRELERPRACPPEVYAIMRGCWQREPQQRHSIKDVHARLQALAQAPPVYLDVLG

Molecule: NGF: nerve growth factor, control [reference compound]
- Kd (p75NTR): 2 nM

Molecule: NT-3: neurotrophin-3, control activating trkC expressing cells [reference compound]
- Kd (p75NTR): 2 nM
- receptor tyrosine phosphorylation of trkC-expressing cell line (human TrkC): activated trkC expressing cells

B1: S50C: single cysteine mutant of mature human NT-4/5, serine 50 to cysteine (protein)
chain: GVSETAPASRRGELAVCDAVSGWVTDRRTAVDLRGREVEVLGEVPAAGGCPLRQYFFETRCKADNAEEGGPGAGGGGCRGVDRRHWVSECKAKQSYVRALTADAQGRVGWRWIRIDTACVCTLLSRTGRA
- functional binding with TrkB in the KIRA assay (human TrkB): found possible

B2: PEG-NT4-S50C: human NT-4/5 with serine 50 changed to cysteine, pegylated with mPEG-maleimide (10,000 Da) (conjugate)
chain: B1 chain
- receptor tyrosine phosphorylation of TrkB-expressing cell line (human TrkB): increased receptor tyrosine phosphorylation
- receptor tyrosine phosphorylation of trkC-expressing cell line (human TrkC): did not increase receptor tyrosine phosphorylation
- receptor tyrosine phosphorylation of trkA-expressing cell line (human TrkA): did not increase receptor tyrosine phosphorylation
- body weight [1]: significantly reduced
- food intake [1]: significantly reduced
- blood glucose level ([1]; day 9): did not significantly reduce
- triglyceride level ([1]; day 9): did not significantly reduce

B3: E67C: single cysteine mutant of mature human NT-4/5, glutamic acid 67 to cysteine (protein)
chain: B1 chain with C50S, E67C
- functional binding with TrkB in the KIRA assay (human TrkB): found possible

B4: Q105C: single cysteine mutant of mature human NT-4/5 at position 105 (protein)
chain: B1 chain with C50S, Q105C
- functional binding with TrkB in the KIRA assay (human TrkB): found possible

B5: pegylated G1S NT-4/5: NT4-G1S (glycine 1 to serine) pegylated with 20K-m-PEG-HZ; 1PEG or 2PEG form not stated (conjugate, UniProt P34130 81-210, looked up, variant G1S)
Neurotrophin-4: B1 chain with G1S, C50S
modifications: 20K-m-PEG-HZ
- body weight after the first single dose (DIO mice [2]; 2 mg/kg i.v.): more effective in reducing body weight
- food intake after the first single dose (DIO mice [2]; 2 mg/kg i.v.): more effective in reducing food intake than WT NT-4/5
- body weight, pairwise difference with the vehicle control group (DIO mice [2]; 2 mg/kg i.v. on day 1, 8, 15, 22, Bonferroni posttests): significant pairwise differences
- time to body weight recovery after each weekly dosing (DIO mice [2]; 2 mg/kg i.v. weekly): 3 to 4 days

B6: Pegylated NT-4/5(E67C): NT-4/5 with glutamic acid 67 changed to cysteine, pegylated with mPEG-maleimide (10,000 Da) (conjugate)
chain: B1 chain with C50S, E67C
- receptor tyrosine phosphorylation of TrkB-expressing cell line (human TrkB): active in activating TrkB receptor

B7: BDNF: recombinant human brain-derived neurotrophic factor from PeproTech Inc. (protein, UniProt P23560 19-247, looked up)
Neurotrophic factor BDNF …: APMKEANIRGQGGLAYPGVRTHGTLESVNGPKAGSRGLTSLADTFEHVIEELLDEDQKVRPNEENNKDADLYTSRVMLSSQVPLEPPLLFLLEEYKNYLDAANMSMRVRRHSDPARRGELSVCDSISEWVTAADKKTAVDMSGGTVTVLEKVPVSKGQLKQYFYETKCNPMGYTKEGCRGIDKRHWNSQCRTTQSYVRALTMDSKKRIGWRFIRIDTSCVCTLTIKRGR
- body weight on day 2 (DIO mice [3]): did not significantly reduce body weigh
- food intake on day 2 (DIO mice [3]): did not significantly reduce food intake
- Kd (p75NTR): 2 nM
